Results from publication PMC3348928, “Ordered Self-Assembly Mechanism of a Spherical Oncoprotein Oligomer Triggered by Zinc Removal and Stabilized by an Intrinsically Disordered Domain” (PLoS ONE, 2012).

Assays:
[1] = biological target: E7 (Human papillomavirus type 16) (UniProt P03129); settings: cited from earlier work
[2] = biological target: Recombinant E7 HPV-16 protein (human papillomavirus type 16 E7 oncoprotein) (human papillomavirus type 16) (UniProt P03129); assay: thioflavin T fluorescence kinetics; 10 mM sodium phosphate pH 7.0, 1 mM DTT, 20 µM ThT; triggered by 1.0 mM TPEN; 15 µM protein
[3] = biological target: Recombinant E7 HPV-16 protein (human papillomavirus type 16 E7 oncoprotein) (human papillomavirus type 16) (UniProt P03129); assay: thioflavin T fluorescence kinetics; 10 mM sodium phosphate pH 7.0, 1 mM DTT, 20 µM ThT; triggered by 1.0 mM EDTA; 15 µM protein (Figure 3)
[4] = biological target: Recombinant E7 HPV-16 protein (human papillomavirus type 16 E7 oncoprotein) (human papillomavirus type 16) (UniProt P03129); assay: thioflavin T fluorescence kinetics; ThT traces at different initial E7 concentrations after EDTA, analysed with the kinetically limited (KL) assembly model of Zlotnick; 10 mM sodium phosphate pH 7.0, 1 mM DTT, 20 µM ThT
[5] = biological target: the molecule itself; assay: dynamic light scattering; 15 µM protein, 10 mM sodium phosphate pH 7.0, 1.0 mM DTT, 25°C; after addition of 1.0 mM EDTA (zinc removal); E7 at the plateau, E7C after 2 h and 24 h

## E7 (from UniProt P03129)
[1]
  Kd: 1000 nM

## Recombinant E7 HPV-16 protein (human papillomavirus type 16 E7 oncoprotein) (from UniProt P03129 1-98) (natural protein)
[2]
  half-life of the slow oligomerization phase, TPEN: < 6 min
[3]
  half-life of the slow increase in ThT binding (oligomerisation phase): 10 min
  half-life of the slow oligomerization phase, EDTA: < 8 min
[4]
  overall average time for each monomer added at 20 µM: 28 s
  z-nucleus size n (KL model): 1.2

B1: E7 HPV-16 C-terminal domain, spanning residues 40-98 (domain or fragment, human papillomavirus type 16, UniProt P03129 40-98, looked up)
chain: GPAGQAEPDRAHYNIVTFCCKCDSTLRLCVQSTHVDIRTLEDLLMGTLGIVCPICSQKP
notes: The introduction gives 58 amino acids for E7C, but residues 40-98 are 59; also called E7C; source: recombinant, expressed and purified as previously described [52]
[5]
  binding result: binds
